The values below come from paper PMC8690526, “Expression, purification and characterisation of a human anti-CDK4 single-chain variable fragment antibody” (BMC Biotechnology, 2021).

Conditions in all cases: both partners purified
The target of assay [1] is T1, recombinant human cyclin-dependent kinase 4 (Homo sapiens, UniProt P11802).
T1 construct: cyclin-dependent kinase 4 (CDK4), human, recombinant; also called rhCDK4; CDK4
As to the kind of experiment: ELISA; non-competitive, affinity constant; plates coated with rhCDK4 at 8.0, 4.0, 2.0, 1.0 μg/mL; serial dilutions of AK2 (8.000-0.125 μg/mL); Kaff = (n − 1) / (n [Ab′] − [Ab]), n = [Ag] / [Ag′]; triplicates. Background: In an ELISA, binding on a coated surface is turned into a signal by an enzyme label.

Assay [2] has as its target T2, recombinant human prolyl hydroxylase 2 (Homo sapiens, UniProt Q9GZT9).
T2 construct: prolyl hydroxylase 2 (PHD2), human, recombinant; also called rhPHD2; PHD2
Briefly: ELISA; non-competitive; plates coated with rhCDK4 or irrelevant proteins (rhPHD2, rhCOX-2, BSA); purified AK2 10 μg/mL in 3% non-fat milk in PBST, 2 h; detection by anti-V5 tag antibody and HRP-conjugated IgG, A492.

In assay [3] the target is T3, bovine serum albumin (Bos taurus, UniProt P02769).
T3 construct: serum albumin, bovine; also called BSA
T3 sequence (P02769 25-607): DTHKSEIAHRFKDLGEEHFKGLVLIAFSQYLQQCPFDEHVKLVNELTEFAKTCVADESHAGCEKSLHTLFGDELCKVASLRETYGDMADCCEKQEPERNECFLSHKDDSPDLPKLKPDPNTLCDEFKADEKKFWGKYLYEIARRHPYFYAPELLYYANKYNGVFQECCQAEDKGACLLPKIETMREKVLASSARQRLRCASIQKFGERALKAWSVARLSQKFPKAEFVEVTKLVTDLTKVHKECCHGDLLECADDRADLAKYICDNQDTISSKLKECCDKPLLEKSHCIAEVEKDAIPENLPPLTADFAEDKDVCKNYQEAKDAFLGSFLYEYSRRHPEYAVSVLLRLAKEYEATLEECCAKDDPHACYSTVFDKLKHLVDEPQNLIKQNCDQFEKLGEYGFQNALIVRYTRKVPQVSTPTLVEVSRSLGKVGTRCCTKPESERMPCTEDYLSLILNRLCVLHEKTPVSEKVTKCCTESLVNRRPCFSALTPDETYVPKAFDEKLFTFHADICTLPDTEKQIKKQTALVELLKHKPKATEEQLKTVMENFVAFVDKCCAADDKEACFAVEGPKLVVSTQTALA
The description is as above.

T1 sequence (P11802 whole entry): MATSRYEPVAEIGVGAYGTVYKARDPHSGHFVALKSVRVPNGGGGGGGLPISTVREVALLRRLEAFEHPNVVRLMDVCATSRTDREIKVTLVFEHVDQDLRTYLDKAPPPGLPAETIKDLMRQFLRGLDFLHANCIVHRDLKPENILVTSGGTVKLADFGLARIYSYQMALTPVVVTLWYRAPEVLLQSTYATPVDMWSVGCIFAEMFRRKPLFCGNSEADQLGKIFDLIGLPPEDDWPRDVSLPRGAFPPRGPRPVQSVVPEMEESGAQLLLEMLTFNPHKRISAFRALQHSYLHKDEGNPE
T2 sequence (Q9GZT9 whole entry): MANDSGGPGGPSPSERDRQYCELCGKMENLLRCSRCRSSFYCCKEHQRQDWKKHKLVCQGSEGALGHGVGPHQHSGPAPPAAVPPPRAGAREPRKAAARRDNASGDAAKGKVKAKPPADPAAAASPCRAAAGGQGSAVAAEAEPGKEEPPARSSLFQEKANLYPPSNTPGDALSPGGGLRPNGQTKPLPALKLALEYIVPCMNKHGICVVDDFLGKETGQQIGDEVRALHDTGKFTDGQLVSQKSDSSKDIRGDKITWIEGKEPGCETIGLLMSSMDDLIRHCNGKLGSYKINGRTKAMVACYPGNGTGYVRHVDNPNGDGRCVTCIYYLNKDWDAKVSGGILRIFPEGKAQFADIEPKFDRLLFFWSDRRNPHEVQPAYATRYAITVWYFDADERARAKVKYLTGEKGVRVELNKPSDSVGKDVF

B1: human anti-CDK4 single-chain variable fragment antibody AK2 (scFv, V domains shown)
VH: QVQLQESGGGLVQPGGSLRLSCAASGFTFSSYAMSWVRQAPGKGLEWVSAISGSGGSTYYADSVEGRFTISRDNSKNTLYLQMNSLRAEDTAVYYCARRLTGFDYWGQGTLVTVSS
VL: QSALTQPPSASGSPGQSVTISCTGTSSDVGGYNYVSWYQQHPGKAPKLMIYDVSKRPSGVSNRFSGSKSGNTASLTIFGLQAEDEADYYCSSYTSSSTLVFGGGTKLTVL
notes: AK2-VH; linker peptide between the variable regions; AK2-VL; A pelB leader stands upstream of AK2 in the phagemid; About 30 kD on SDS-PAGE; also called soluble AK2; purified AK2; source: E. coli HB2151 (AK2/HB2151), IPTG-induced, secreted into the culture supernatant; used as culture supernatant or purified (ammonium sulphate precipitation, Ni2+-NTA, PD-10 desalting); …
In the case of B1, the Ka in assay [1] is 2.48e+07 M⁻¹. In addition, the binding result in assay [2] and in assay [3] was “no binding (tested: 10 μg/mL AK2)” throughout.
